Data taken from patent US20040110922A1.

Tests used:
Assay in all cases: cell-based or functional assay
[1] = biological target: gp120 of HIV-1 IIIB (laboratory strain, on virus) (HIV-1 IIIB)
[2] = biological target: gp120 of HIV-1 MN (laboratory strain, on virus) (HIV-1 MN)
[3] = biological target: gp120 of HIV-1 clade B primary isolate Bal, on virus (HIV-1 Bal)
[4] = biological target: gp120 of HIV-1 clade B primary isolate GV, on virus (HIV-1 GV)
[5] = biological target: gp120 of HIV-1 clade B primary isolate JR-FL, on virus (HIV-1 JR-FL)
[6] = biological target: gp120 of HIV-1 clade B primary isolate P15, on virus (HIV-1 P15)
[7] = biological target: gp120 of HIV-1 clade B primary isolate PVO, on virus (HIV-1 PVO)
[8] = biological target: gp120 of HIV-1 clade C primary isolate DU151 (R5), on virus (HIV-1 DU151)
[9] = biological target: gp120 of HIV-1 clade C primary isolate DU179 (R5/X4), on virus (HIV-1 DU179)
[10] = biological target: gp120 of HIV-1 clade C primary isolate DU368 (R5), on virus (HIV-1 DU368)
[11] = biological target: gp120 of HIV-1 clade C primary isolate DU422 (R5), on virus (HIV-1 DU422)

“product of clone 611-2, CD4(V1 + V2)-hIgG1 (from UniProt P01730 26-203) (Fc fusion)” was tested, and the ID50 (nM), protection of MT-2 cells from virus-induced cell killing [1] was 0.79 nM, the ID50 (nM), protection of MT-2 cells from virus-induced cell killing [2] was < 0.41 nM and the % reduction in p24 in PMBC at 890 nM [3] was 100%. For the same substance, the ID90 (nM), 90% reduction of p24 production in PMBC [3] was 5.3 nM, the % reduction in p24 in PMBC at 890 nM [4] was 88% and the % reduction in p24 in PMBC at 890 nM [5] was 100%. The ID90 (nM), 90% reduction of p24 production in PMBC [5] was 8.2 nM, the % reduction in p24 in PMBC at 890 nM [6] was 94% and the % reduction in p24 in PMBC at 890 nM [7] was 96%. The % reduction in p24 in PMBC at 890 nM [8] was 63%, the % reduction in p24 in PMBC at 890 nM [9] was 78% and the % reduction in p24 in PMBC at 890 nM [10] was 53%. For the same substance, the % reduction in p24 in PMBC at 890 nM [11] was 9%.
